Measurements from US20140056878A1 (ANAPTYSBIO, published 2014).

Legend:
[1] = biological target: complement protein C5 (UniProt P01031 19-673; P01031 678-1676); assay: cell-based or functional assay
[2] = biological target: T1, C5-C345C (Homo sapiens (Human), UniProt P01031 1530-1676); assay: BIACORE screening
T1 construct: C-terminal 147 amino acid residues of the 1648 residue C5 protein; A Myc-tagged or Dylight-650-labelled form was used for FACS selection; In the BIACORE analyses it is named only 'C5-C345C' analyte, and no tag is stated; also called C345C domain of complement C5 protein; C5 domain C5-C345C
T1 sequence (P01031 1530-1676 limits assumed): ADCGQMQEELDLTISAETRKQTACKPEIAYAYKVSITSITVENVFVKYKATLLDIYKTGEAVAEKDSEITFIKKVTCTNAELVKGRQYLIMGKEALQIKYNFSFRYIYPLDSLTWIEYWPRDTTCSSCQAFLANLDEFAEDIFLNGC

complement protein C5, sequence (P01031 19-673 limits assumed, chain 1 of 2): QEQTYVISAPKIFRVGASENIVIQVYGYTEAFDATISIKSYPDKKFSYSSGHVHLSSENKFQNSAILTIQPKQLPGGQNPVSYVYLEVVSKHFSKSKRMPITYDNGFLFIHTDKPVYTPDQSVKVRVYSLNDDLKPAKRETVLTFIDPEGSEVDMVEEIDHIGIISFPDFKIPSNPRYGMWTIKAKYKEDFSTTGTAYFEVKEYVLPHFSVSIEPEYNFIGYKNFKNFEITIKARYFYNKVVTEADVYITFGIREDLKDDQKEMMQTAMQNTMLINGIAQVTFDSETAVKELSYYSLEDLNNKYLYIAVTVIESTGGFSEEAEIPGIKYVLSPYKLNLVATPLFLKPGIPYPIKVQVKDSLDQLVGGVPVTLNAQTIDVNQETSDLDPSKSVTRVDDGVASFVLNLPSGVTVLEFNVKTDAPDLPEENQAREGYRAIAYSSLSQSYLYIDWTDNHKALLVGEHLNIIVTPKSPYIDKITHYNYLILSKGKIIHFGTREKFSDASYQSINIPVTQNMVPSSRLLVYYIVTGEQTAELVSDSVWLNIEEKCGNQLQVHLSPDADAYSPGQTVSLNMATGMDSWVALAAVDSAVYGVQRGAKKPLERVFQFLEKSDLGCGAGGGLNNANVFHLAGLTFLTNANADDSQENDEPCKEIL
complement protein C5, sequence (P01031 678-1676 limits assumed, chain 2 of 2): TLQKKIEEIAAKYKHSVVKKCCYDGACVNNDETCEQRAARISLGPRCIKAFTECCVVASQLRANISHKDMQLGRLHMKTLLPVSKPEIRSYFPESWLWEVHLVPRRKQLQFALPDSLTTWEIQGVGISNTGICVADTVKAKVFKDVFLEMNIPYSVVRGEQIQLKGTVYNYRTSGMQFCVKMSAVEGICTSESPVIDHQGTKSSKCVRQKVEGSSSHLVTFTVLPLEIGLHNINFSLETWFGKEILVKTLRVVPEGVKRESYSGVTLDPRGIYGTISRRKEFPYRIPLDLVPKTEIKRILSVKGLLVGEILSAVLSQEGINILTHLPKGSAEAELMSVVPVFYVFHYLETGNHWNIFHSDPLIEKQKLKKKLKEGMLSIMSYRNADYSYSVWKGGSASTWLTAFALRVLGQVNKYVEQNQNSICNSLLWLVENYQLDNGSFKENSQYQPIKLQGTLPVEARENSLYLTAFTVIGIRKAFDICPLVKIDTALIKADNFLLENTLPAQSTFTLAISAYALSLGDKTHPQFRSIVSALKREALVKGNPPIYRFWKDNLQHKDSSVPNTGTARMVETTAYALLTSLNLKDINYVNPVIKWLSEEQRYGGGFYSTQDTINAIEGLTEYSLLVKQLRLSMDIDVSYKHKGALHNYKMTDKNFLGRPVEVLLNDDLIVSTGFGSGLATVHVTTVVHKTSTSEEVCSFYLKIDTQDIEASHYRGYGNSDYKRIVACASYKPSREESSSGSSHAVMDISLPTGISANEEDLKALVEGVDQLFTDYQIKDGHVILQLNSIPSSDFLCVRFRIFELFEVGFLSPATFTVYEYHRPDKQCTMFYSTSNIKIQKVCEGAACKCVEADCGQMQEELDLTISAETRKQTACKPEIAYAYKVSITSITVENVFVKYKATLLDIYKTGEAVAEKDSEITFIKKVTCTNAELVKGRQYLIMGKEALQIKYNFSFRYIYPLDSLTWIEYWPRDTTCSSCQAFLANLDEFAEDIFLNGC

Row | Binder | inhibition of hemolysis of antibody-coated sheep erythrocytes (classical complement pathway, 1% normal human serum) [1] | Kd [2] | fold improvement in KD over APE777 [2]
1 | APE1142 (antibody, IgG1, V domains shown) VH: EVQLLESGGGLVQPGGSLRLSCAASGFTFSSYAMTWVRQAPGKGLEWVSVISGSGSTYYADSVKGRFTISRDNSKNTLYLQMNSLRAEDTAVYYCARRGLRYNYFDYWGQGTTLTVSS VL: not shown | 1 µM | – | –
2 | APE1224 (antibody, V domains shown) VH: EVQLLESGGGLVQPGGSLRLSCAASGFTFSSYAMTWVRQAPGKGLEWVSAISGSGSTYYADSVKGRFTISRDNSKNTLYLQMNSLRAEDTAVYYCARRGLRYNYFDYWGQGTTLTVSS VL: not shown | 1 µM | 0.2 nM | 1000 fold
